# Key:
# human GITR [1] = biological target: T1, human GITR (human, UniProt Q9Y5U5 26-241); test: cell-based or functional assay
# T1 sequence: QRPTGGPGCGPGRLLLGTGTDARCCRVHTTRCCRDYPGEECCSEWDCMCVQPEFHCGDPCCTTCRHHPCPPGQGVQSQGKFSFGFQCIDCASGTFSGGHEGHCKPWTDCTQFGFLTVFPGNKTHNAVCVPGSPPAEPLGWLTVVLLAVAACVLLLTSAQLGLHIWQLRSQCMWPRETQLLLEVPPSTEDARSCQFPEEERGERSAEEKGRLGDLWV
# human GITR [2] = biological target: T1, human GITR; test: flow cytometry on activated human T cells
# [3] = biological target: T2, human GITR (Glucocorticoid-induced TNFR-related gene, TNFRSF18) (human, UniProt Q9Y5U5 26-241); test: cell-based or functional assay
# T2 sequence: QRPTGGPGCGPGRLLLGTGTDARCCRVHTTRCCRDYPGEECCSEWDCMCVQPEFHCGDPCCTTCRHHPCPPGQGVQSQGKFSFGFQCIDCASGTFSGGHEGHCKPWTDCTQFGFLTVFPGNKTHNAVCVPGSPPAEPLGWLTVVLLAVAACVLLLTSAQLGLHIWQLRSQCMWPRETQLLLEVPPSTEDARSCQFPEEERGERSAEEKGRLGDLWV
# [4] = biological target: T2, human GITR (Glucocorticoid-induced …); test: flow cytometry (MFI), antibody titration on anti-CD3-activated primary human T cells (CD25+CD4+)
Binder,Proliferation (Fold over CD3) (human GITR [1]) [fold over CD3],Proliferation EC50 (human GITR [1]) [µg/mL],EC50 (human GITR [2]) [µg/mL],IFNg Secretion (Fold over CD3) [3] [fold over CD3],IFNg Secretion EC50 [3] [µg/mL],EC50 [4] [µg/mL]
"5H7v7 (antibody, human IgG1, kappa, V domains shown, Engineered variant; also called Ab29; SS-16917) VH: QVQLQESGPGLVKPSETLSLTCTVSGGSISSGGYFWSWIRQPPGKGLEWIGYIYYSGTTYYNPSLKSRVTISIDTSKNQFSLKLSSVTAADTAVYYCARDLFYYDTSGPRGFEPWGQGTLVTVSS VL: EIVLTQSPGTLSLSPGERATLSCRASQTVSSNYLAWYQQKPGQAPRLLIYGSSTRATGIPDRFSGSGSGTDFTLTISRLEPEDFAVYYCQQYDSSPWTFGQGTKVEIKR",2.1,0.028,0.461,–,–,–
"5H7v14 (antibody, human IgG1, kappa, V domains shown, Engineered variant; also called Ab34; SS-16924) VH: QVQLQESGPGLVKPSETLSLTCTVSGGSISSGGYFWSWIRQPPGKGLEWIGYIYYSGTTYYNPSLKSRVTISIDTSKNQFSLKLSSVTAADTAVYYCARDLFYYDSSGPRGFEPWGQGTLVTVSS VL: EIVLTQSPGTLSLSPGERATLSCRASQTVSSNYLAWYQQKPGQAPRLLIYGSSTRATGIPDRFSGSGSGTDFTLTISRLEPEDFAVYYCQQYESSPWTFGQGTKVEIKR",1.9,0.031,0.995,–,–,–
"5H7v18 (antibody, human IgG1, kappa, V domains shown, Engineered variant; also called Ab36; SS-16928) VH: QVQLQESGPGLVKPSETLSLTCTVSGGSISSGGYFWSWIRQPPGKGLEWIGYIYYSGTTYYNPSLKSRVTISIDTSKNQFSLKLSSVTAADTAVYYCARDLFYYDSSGPRGFEPWGQGTLVTVSS VL: EIVLTQSPGTLSLSPGERATLSCRASQTVSSNYLAWYQQKPGQAPRLLIYGSSTRATGIPDRFSGSGSGTDFTLTISRLEPEDFAVYYCQQYDTSPWTFGQGTKVEIKR",2.7,0.012,0.804,–,–,–
"5H7v22 (antibody, human IgG1, kappa, V domains shown, Engineered variant; also called Ab38; SS-16932) VH: QVQLQESGPGLVKPSETLSLTCTVSGGSISSGGYFWSWIRQPPGKGLEWIGYIYYSGTTYYNPSLKSRVTISIDTSKNQFSLKLSSVTAADTAVYYCARDLFYYDTSGPRGFEPWGQGTLVTVSS VL: EIVLTQSPGTLSLSPGERATLSCRASQTVSSNYLAWYQQKPGQAPRLLIYGSSTRATGIPDRFSGSGSGTDFTLTISRLEPEDFAVYYCQQYESSPWTFGQGTKVEIKR",1.7,0.027,0.786,–,–,–
"34G4 (antibody, human IgG1, kappa, V domains shown, Fully human parental antibody; also called Ab4; SS-12415) VH: QVQLVESGGGVVQPGRSLRLSCAASGFTFSSYGMHWVRQAPGKGLEWVAVIWYEGSNKYYADSVKGRFTISRDNSKNTLYLQMNSLRAEDTAVYYCARGGQLGYYYYYGMDVWGQGTTVTVSS VL: DIQMTQSPSSLSASVGDRVTITCRASQGIRNDLGWYQQKPGKAPKRLIYDASSLQSGVPSRFSGSGSGTDFTLTISSLQPEDFATYYCLQLNSYPWTFGQGTKVEIKR",–,–,–,1.9,0.0002,0.038
"35B10 (antibody, human IgG1, kappa, V domains shown, Fully human parental antibody; also called Ab5; SS-12416) VH: QVQLVESGGGVVQPGRSLRLSCAASGFTFSSYGMHWVRQAPGKGLEWVAVIWYAGSNKYYADSVKGRFTISRDNSKNTLYLQMNSLRAEDTAVYYCARGGELSFYYYYGMDVWGQGTTVTVSS VL: DIQMTQSPSSLSASVGDRVTITCRASQGIRNDLGWYQQKPGKAPKRLIYAASTLQSGVPSRFSGSGSGTEFTLTISSLQPEDFATYYCLQHNNYPWTFGQGTKVEIKR",–,–,–,1.9,0.0005,0.033
"42A11 (antibody, human IgG1, kappa, V domains shown, Fully human parental antibody; also called Ab8; SS-12418) VH: QVQLVESGGGVVQPGRSLRLSCAASGFTFSSYGMHWVRQAPGKGLEWVAVIWYEGSNKYYADSVKGRFTISRDNSKNTLYLQMNSLRAEDTAVYYCARGGQLGYYYYSGMDVWGQGTTVTVSS VL: DIQMTQSPSSLSASVGDRVTITCRASQGIRNDLGWYQQKPGKAPKRLIYDASSLQSGVPSRFSGSGSGTDFTLTISSLQPEEFATYYCLQHNNYPWTFGQGTKVEIKR",–,–,–,1.9,0.0012,0.051
"1D7 (antibody, human IgG1, kappa, V domains shown, Fully human parental antibody; also called Ab1; SS-10942) VH: QVQLVESGGGVVQPGRSLRLSCAASGFTFSSYGMHWVRQAPGKGLEWVTVIWYEGSNKYYADSVKGRFTISRDNSKNTLYLQMNSLRAEDTAVYYCARGGQLGKYYYYGMDVWGQGTTVTVSS VL: DIQMTQSPSSLSASVGDRVTITCRASQGIRNDLGWYQQKPGKAPKRLIYDASSLQSGVPSRFSGSGSGTEFTLTISSLQPEDFATYYCLQHNNYPWTFGQGTKVEIKR",–,–,–,2.2,0.0008,0.024
"33F6 (antibody, human IgG1, kappa, V domains shown, Fully human parental antibody; also called Ab3; SS-12414) VH: QVQLVESGGGVVQPGRSLRLSCAASGFTFSNYGMHWVRQAPGKGLEWVAVIWYVGSNKYYADSVKGRFTISRDNSKNTLYLQMNSLRAEDTAVYYCARGGELRLYYYYGMDVWGQGTTVTVSS VL: DIQMTQSPSSLSASVGDRVTITCRASQGIRNDLGWYQQKPGKAPKRLIYAASSLQSGVPSRFSGSGSGTEFTLTVSSLQPEDFATYYCLQLNSYPWTFGQGTKVEIKR",–,–,–,2.8,0.0004,0.053
"33C9 (antibody, human IgG1, kappa, V domains shown, Fully human parental antibody; also called Ab2; SS-12413) VH: QVQVVESGGGVVQPGRSLRLSCAASGFTFSSYGMHWVRQAPGKGLEWVSVIWYEGSNKYYADSVKGRFTISRDNSKNTLYLQMNSLRAEDTAVYYCARGGLLGYYYYYGMDVWGQGTTVTVSS VL: DIQMTQSPSSLSASVGDRVTITCRASQGIRNDLGWYQQKPGKAPKRLIYDASSLQSGVPSRFSGSGSGTEFTLTISSLQPEDFATYYCLQHHSYPWTFGQGTKVEIKR",–,–,–,2.7,0.001,0.035
"7A10 (antibody, human IgG1, kappa, V domains shown, Fully human parental antibody; also called Ab18; SS-10944) VH: QVQLVESGGGVVQPGRSLRLSCAASGFTFSSYGMHWVRQAPGKGLEWMAVIWYVGSNKYYADSVKGRFTISRDNSKNTLYLQMNSLSAEDTAVYYCARGGELGRDYYSGMDVWGQGTTVTVSS VL: DIQMTQSPSSLSASVGDRVTITCRASQGIRNDLGWYQQKPGKAPKRLIYAASSLQSGVPSRFSGSGSGTEFTLTISSLQPEDFATYYCQQHNSYPWTFGQGTKVEIKR",–,–,–,2.2,0.0002,0.027
"48H7 (antibody, human IgG1, kappa, V domains shown, Fully human parental antibody; also called Ab13; SS-12423) VH: QVQLVESGGGVVQPGRSLRLSCAASGFTFSSYGMYWVRQAPGKGLEWVAVIWYEGSNKYYADSVKGRFTISRDNSKNTLYLQMNSLRAEDTAVYFCARGGELGRDYYSGMDVWGQGTTVTVSS VL: DIQMTQSPSSLSASVGDRVTITCRASQVIRNDLGWYQQKPGKAPKRLIYAASSLQSGVPSRFSGSGSGTEFTLTISSLQPEDFATYYCLQHNSYPITFGGGTKVEIKR",–,–,–,1.2,0.0006,0.045
"41G5 (antibody, human IgG1, kappa, V domains shown, Fully human parental antibody; also called Ab7; SS-12428) VH: QVQLVESGGGVVQPGRSLRLSCAASGFTFSSYGMHWVRQAPGKGLEWVAVIWYPGSNKYYADSVKGRFTISRDNSKNTLYLQMNSLRAEDTAVYYCARGGELGRYYYYGMDVWGQGTTVTVSS VL: DIQMTQSPSSLSASVGDRVTVTCRASQGIRNDLGWYQQKPGKAPKRLIYAASSLQSGVPSRFSGSGSGTEFTLTISSLQPEDFATYYCLQHNNYPWTFGQGTKVDIKR",–,–,–,1.9,0.0008,0.033
